Assay results reported in publication doi:10.1101/2022.05.23.493104 (bioRxiv, 2022).

T1: CAV1-His (wild type caveolin-1, E. coli expression) (human, UniProt Q03135 1-178)
T1 sequence: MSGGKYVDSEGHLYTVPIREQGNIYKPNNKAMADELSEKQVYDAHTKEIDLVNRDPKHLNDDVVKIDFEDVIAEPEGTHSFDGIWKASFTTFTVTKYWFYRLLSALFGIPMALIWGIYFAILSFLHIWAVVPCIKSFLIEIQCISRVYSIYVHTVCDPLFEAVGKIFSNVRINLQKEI


How the values were obtained:
[1] = target: the molecule itself; experiment: negative stain electron microscopy
[2] = target: T1, CAV1-His (wild type caveolin-1, E. coli …); experiment: negative stain electron microscopy

binding result [2]	Binder	binding result [1]
binds	P132L-mVenusHis (caveolin-1 P132L with C-terminal mVenus, E. coli expression) (natural protein, human) MSGGKYVDSEGHLYTVPIREQGNIYKPNNKAMADELSEKQVYDAHTKEIDLVNRDPKHLNDDVVKIDFEDVIAEPEGTHSFDGIWKASFTTFTVTKYWFYRLLSALFGIPMALIWGIYFAILSFLHIWAVVLCIKSFLIEIQCISRVYSIYVHTVCDPLFEAVGKIFSNVRINLQKEI	binds
	P132L-His (caveolin-1 P132L, E. coli expression) (natural protein, human) MSGGKYVDSEGHLYTVPIREQGNIYKPNNKAMADELSEKQVYDAHTKEIDLVNRDPKHLNDDVVKIDFEDVIAEPEGTHSFDGIWKASFTTFTVTKYWFYRLLSALFGIPMALIWGIYFAILSFLHIWAVVLCIKSFLIEIQCISRVYSIYVHTVCDPLFEAVGKIFSNVRINLQKEI	binds
